Data taken from the supplement of paper PMC6755084.

B1: F1*; the commonest letter at each place (parent)
chain: GAGACCGCAACTGAAAAGTTGTTATCACTTGTCGTAAGACACTTTGGATGGGTTGAAGTTCTGCACGTAGAAGCAAAAGGC

Variants of: B1
Assay: fraction ligated after 30 min (ligated reads / total reads); higher = more ligase activity
Settings: with F1*sub RNA substrate (template-directed ligation), 42 °C
Method in brief: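 Oligo-pool templates of ligase ribozyme variants were PCR-amplified, T7-transcribed and gel-purified. Ligated and unligated bands were gel-separated, reverse transcribed with barcoded primers, and MiSeq-sequenced; core bases were filtered at quality ≥20. Fraction ligated per variant was ligated reads over total reads.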

Variant	fraction ligated
GAGACCGCAACTGAAAAGTTGTTATCACTTGTGGTAAGCCACTTTGGATGGGTTGAAGTTCTGCACGTAGAAGCAAAAGGC [C33G A39C]	0.833
GAGACCGCAACTGAAAAGTTGTTATCACTTGTGGTAAGGCACTTTGGATGGGTTGAAGTTCTGCACGTAGAAGCAAAAGGC [C33G A39G]	0.836
GAGACCGCAACTGAAAAGTTGTTATCACTTGTGGTAAGTCACTTTGGATGGGTTGAAGTTCTGCACGTAGAAGCAAAAGGC [C33G A39T]	0.851
GAGACCGCAACTGAAAAGTTGTTATCACTTGTGGTAAGACCCTTTGGATGGGTTGAAGTTCTGCACGTAGAAGCAAAAGGC [C33G A41C]	0.822
GAGACCGCAACTGAAAAGTTGTTATCACTTGTGGTAAGACGCTTTGGATGGGTTGAAGTTCTGCACGTAGAAGCAAAAGGC [C33G A41G]	0.791
GAGACCGCAACTGAAAAGTTGTTATCACTTGTGGTAAGACTCTTTGGATGGGTTGAAGTTCTGCACGTAGAAGCAAAAGGC [C33G A41T]	0.789
GAGACCGCAACTGAAAAGTTGTTATCACTTGTGGTAAGACACTTTGGCTGGGTTGAAGTTCTGCACGTAGAAGCAAAAGGC [C33G A48C]	0.727
GAGACCGCAACTGAAAAGTTGTTATCACTTGTGGTAAGACACTTTGGGTGGGTTGAAGTTCTGCACGTAGAAGCAAAAGGC [C33G A48G]	0.793
GAGACCGCAACTGAAAAGTTGTTATCACTTGTGGTAAGACACTTTGGTTGGGTTGAAGTTCTGCACGTAGAAGCAAAAGGC [C33G A48T]	0.0603
GAGACCGCAACTGAAAAGTTGTTATCACTTGTGGTAAGACACTTTGGATGGGTTGCAGTTCTGCACGTAGAAGCAAAAGGC [C33G A56C]	0.837
GAGACCGCAACTGAAAAGTTGTTATCACTTGTGGTAAGACACTTTGGATGGGTTGGAGTTCTGCACGTAGAAGCAAAAGGC [C33G A56G]	0.793
GAGACCGCAACTGAAAAGTTGTTATCACTTGTGGTAAGACACTTTGGATGGGTTGTAGTTCTGCACGTAGAAGCAAAAGGC [C33G A56T]	0.867
GAGACCGCAACTGAAAAGTTGTTATCACTTGTGGTAAGACACTTTGGATGGGTTGACGTTCTGCACGTAGAAGCAAAAGGC [C33G A57C]	0.847
GAGACCGCAACTGAAAAGTTGTTATCACTTGTGGTAAGACACTTTGGATGGGTTGAGGTTCTGCACGTAGAAGCAAAAGGC [C33G A57G]	0.881
GAGACCGCAACTGAAAAGTTGTTATCACTTGTGGTAAGACACTTTGGATGGGTTGATGTTCTGCACGTAGAAGCAAAAGGC [C33G A57T]	0.836
GAGACCGCAACTGAAAAGTTGTTATCACTTGTGGTAAGAAACTTTGGATGGGTTGAAGTTCTGCACGTAGAAGCAAAAGGC [C33G C40A]	0.819
GAGACCGCAACTGAAAAGTTGTTATCACTTGTGGTAAGAGACTTTGGATGGGTTGAAGTTCTGCACGTAGAAGCAAAAGGC [C33G C40G]	0.826
GAGACCGCAACTGAAAAGTTGTTATCACTTGTGGTAAGATACTTTGGATGGGTTGAAGTTCTGCACGTAGAAGCAAAAGGC [C33G C40T]	0.825
GAGACCGCAACTGAAAAGTTGTTATCACTTGTGGTAAGACAATTTGGATGGGTTGAAGTTCTGCACGTAGAAGCAAAAGGC [C33G C42A]	0.826
GAGACCGCAACTGAAAAGTTGTTATCACTTGTGGTAAGACAGTTTGGATGGGTTGAAGTTCTGCACGTAGAAGCAAAAGGC [C33G C42G]	0.853
GAGACCGCAACTGAAAAGTTGTTATCACTTGTGGTAAGACATTTTGGATGGGTTGAAGTTCTGCACGTAGAAGCAAAAGGC [C33G C42T]	0.833
GAGACCGCAACTGAAAAGTTGTTATCACTTGTGATAAGACACTTTGGATGGGTTGAAGTTCTGCACGTAGAAGCAAAAGGC [C33G G34A]	0.829
GAGACCGCAACTGAAAAGTTGTTATCACTTGTGCTAAGACACTTTGGATGGGTTGAAGTTCTGCACGTAGAAGCAAAAGGC [C33G G34C]	0.843

Variant	fraction ligated
GAGACCGCAACTGAAAAGTTGTTATCACTTGTGTTAAGACACTTTGGATGGGTTGAAGTTCTGCACGTAGAAGCAAAAGGC [C33G G34T]	0.856
GAGACCGCAACTGAAAAGTTGTTATCACTTGTGGTAAAACACTTTGGATGGGTTGAAGTTCTGCACGTAGAAGCAAAAGGC [C33G G38A]	0.847
GAGACCGCAACTGAAAAGTTGTTATCACTTGTGGTAACACACTTTGGATGGGTTGAAGTTCTGCACGTAGAAGCAAAAGGC [C33G G38C]	0.829
GAGACCGCAACTGAAAAGTTGTTATCACTTGTGGTAATACACTTTGGATGGGTTGAAGTTCTGCACGTAGAAGCAAAAGGC [C33G G38T]	0.837
GAGACCGCAACTGAAAAGTTGTTATCACTTGTGGTAAGACACTTTAGATGGGTTGAAGTTCTGCACGTAGAAGCAAAAGGC [C33G G46A]	0.811
GAGACCGCAACTGAAAAGTTGTTATCACTTGTGGTAAGACACTTTCGATGGGTTGAAGTTCTGCACGTAGAAGCAAAAGGC [C33G G46C]	0.779
GAGACCGCAACTGAAAAGTTGTTATCACTTGTGGTAAGACACTTTTGATGGGTTGAAGTTCTGCACGTAGAAGCAAAAGGC [C33G G46T]	0.811
GAGACCGCAACTGAAAAGTTGTTATCACTTGTGGTAAGACACTTTGAATGGGTTGAAGTTCTGCACGTAGAAGCAAAAGGC [C33G G47A]	0.791
GAGACCGCAACTGAAAAGTTGTTATCACTTGTGGTAAGACACTTTGCATGGGTTGAAGTTCTGCACGTAGAAGCAAAAGGC [C33G G47C]	0.108
GAGACCGCAACTGAAAAGTTGTTATCACTTGTGGTAAGACACTTTGTATGGGTTGAAGTTCTGCACGTAGAAGCAAAAGGC [C33G G47T]	0.409
GAGACCGCAACTGAAAAGTTGTTATCACTTGTGGTAAGACACTTTGGATAGGTTGAAGTTCTGCACGTAGAAGCAAAAGGC [C33G G50A]	0.253
GAGACCGCAACTGAAAAGTTGTTATCACTTGTGGTAAGACACTTTGGATCGGTTGAAGTTCTGCACGTAGAAGCAAAAGGC [C33G G50C]	0.114
GAGACCGCAACTGAAAAGTTGTTATCACTTGTGGTAAGACACTTTGGATTGGTTGAAGTTCTGCACGTAGAAGCAAAAGGC [C33G G50T]	0.545
GAGACCGCAACTGAAAAGTTGTTATCACTTGTGGTAAGACACTTTGGATGGGTTAAAGTTCTGCACGTAGAAGCAAAAGGC [C33G G55A]	0.839
GAGACCGCAACTGAAAAGTTGTTATCACTTGTGGTAAGACACTTTGGATGGGTTCAAGTTCTGCACGTAGAAGCAAAAGGC [C33G G55C]	0.643
GAGACCGCAACTGAAAAGTTGTTATCACTTGTGGTAAGACACTTTGGATGGGTTTAAGTTCTGCACGTAGAAGCAAAAGGC [C33G G55T]	0.777
GAGACCGCAACTGAAAAGTTGTTATCACTTGTGGAAAGACACTTTGGATGGGTTGAAGTTCTGCACGTAGAAGCAAAAGGC [C33G T35A]	0.872
GAGACCGCAACTGAAAAGTTGTTATCACTTGTGGCAAGACACTTTGGATGGGTTGAAGTTCTGCACGTAGAAGCAAAAGGC [C33G T35C]	0.825
GAGACCGCAACTGAAAAGTTGTTATCACTTGTGGGAAGACACTTTGGATGGGTTGAAGTTCTGCACGTAGAAGCAAAAGGC [C33G T35G]	0.843
GAGACCGCAACTGAAAAGTTGTTATCACTTGTGGTAAGACACATTGGATGGGTTGAAGTTCTGCACGTAGAAGCAAAAGGC [C33G T43A]	0.814
GAGACCGCAACTGAAAAGTTGTTATCACTTGTGGTAAGACACCTTGGATGGGTTGAAGTTCTGCACGTAGAAGCAAAAGGC [C33G T43C]	0.812
GAGACCGCAACTGAAAAGTTGTTATCACTTGTGGTAAGACACGTTGGATGGGTTGAAGTTCTGCACGTAGAAGCAAAAGGC [C33G T43G]	0.807
GAGACCGCAACTGAAAAGTTGTTATCACTTGTGGTAAGACACTATGGATGGGTTGAAGTTCTGCACGTAGAAGCAAAAGGC [C33G T44A]	0.812

Variant	fraction ligated
GAGACCGCAACTGAAAAGTTGTTATCACTTGTGGTAAGACACTCTGGATGGGTTGAAGTTCTGCACGTAGAAGCAAAAGGC [C33G T44C]	0.804
GAGACCGCAACTGAAAAGTTGTTATCACTTGTGGTAAGACACTGTGGATGGGTTGAAGTTCTGCACGTAGAAGCAAAAGGC [C33G T44G]	0.808
GAGACCGCAACTGAAAAGTTGTTATCACTTGTGGTAAGACACTTAGGATGGGTTGAAGTTCTGCACGTAGAAGCAAAAGGC [C33G T45A]	0.689
GAGACCGCAACTGAAAAGTTGTTATCACTTGTGGTAAGACACTTCGGATGGGTTGAAGTTCTGCACGTAGAAGCAAAAGGC [C33G T45C]	0.273
GAGACCGCAACTGAAAAGTTGTTATCACTTGTGGTAAGACACTTGGGATGGGTTGAAGTTCTGCACGTAGAAGCAAAAGGC [C33G T45G]	0.0204
GAGACCGCAACTGAAAAGTTGTTATCACTTGTGGTAAGACACTTTGGAAGGGTTGAAGTTCTGCACGTAGAAGCAAAAGGC [C33G T49A]	0.596
GAGACCGCAACTGAAAAGTTGTTATCACTTGTGGTAAGACACTTTGGACGGGTTGAAGTTCTGCACGTAGAAGCAAAAGGC [C33G T49C]	0.312
GAGACCGCAACTGAAAAGTTGTTATCACTTGTGGTAAGACACTTTGGAGGGGTTGAAGTTCTGCACGTAGAAGCAAAAGGC [C33G T49G]	0.706
GAGACCGCAACTGAAAAGTTGTTATCACTTGTTGTAAGACACTTTGGATGGGTTGAAGTTCTGCACGTAGAAGCAAAAGGC [C33T]	0.869
GAGACCGCAACTGAAAAGTTGTTATCACTTGTTGTCAGACACTTTGGATGGGTTGAAGTTCTGCACGTAGAAGCAAAAGGC [C33T A36C]	0.843
GAGACCGCAACTGAAAAGTTGTTATCACTTGTTGTGAGACACTTTGGATGGGTTGAAGTTCTGCACGTAGAAGCAAAAGGC [C33T A36G]	0.854
GAGACCGCAACTGAAAAGTTGTTATCACTTGTTGTTAGACACTTTGGATGGGTTGAAGTTCTGCACGTAGAAGCAAAAGGC [C33T A36T]	0.88
GAGACCGCAACTGAAAAGTTGTTATCACTTGTTGTACGACACTTTGGATGGGTTGAAGTTCTGCACGTAGAAGCAAAAGGC [C33T A37C]	0.868
GAGACCGCAACTGAAAAGTTGTTATCACTTGTTGTAGGACACTTTGGATGGGTTGAAGTTCTGCACGTAGAAGCAAAAGGC [C33T A37G]	0.878
GAGACCGCAACTGAAAAGTTGTTATCACTTGTTGTATGACACTTTGGATGGGTTGAAGTTCTGCACGTAGAAGCAAAAGGC [C33T A37T]	0.854
GAGACCGCAACTGAAAAGTTGTTATCACTTGTTGTAAGCCACTTTGGATGGGTTGAAGTTCTGCACGTAGAAGCAAAAGGC [C33T A39C]	0.804
GAGACCGCAACTGAAAAGTTGTTATCACTTGTTGTAAGGCACTTTGGATGGGTTGAAGTTCTGCACGTAGAAGCAAAAGGC [C33T A39G]	0.833
GAGACCGCAACTGAAAAGTTGTTATCACTTGTTGTAAGTCACTTTGGATGGGTTGAAGTTCTGCACGTAGAAGCAAAAGGC [C33T A39T]	0.831
GAGACCGCAACTGAAAAGTTGTTATCACTTGTTGTAAGACCCTTTGGATGGGTTGAAGTTCTGCACGTAGAAGCAAAAGGC [C33T A41C]	0.789
GAGACCGCAACTGAAAAGTTGTTATCACTTGTTGTAAGACGCTTTGGATGGGTTGAAGTTCTGCACGTAGAAGCAAAAGGC [C33T A41G]	0.8
GAGACCGCAACTGAAAAGTTGTTATCACTTGTTGTAAGACTCTTTGGATGGGTTGAAGTTCTGCACGTAGAAGCAAAAGGC [C33T A41T]	0.808
GAGACCGCAACTGAAAAGTTGTTATCACTTGTTGTAAGACACTTTGGCTGGGTTGAAGTTCTGCACGTAGAAGCAAAAGGC [C33T A48C]	0.789
